# Molecular target: Motif_38 protein HW450_07255 (UniProt A0A7G5FC37 1-70)
# Assay: EMSA; EMSA: 20 mM Tris-HCl pH 7.5, 250 mM NaCl, 5% glycerol; 2 uL of 1 uM FAM-DNA (labeled:unlabeled strand 1:4) + 2 uL of ~10 uM protein in 20 uL; 37 C, 30 min
# Conditions: protein: recombinant; tags: His (pET-28a, Ni column); label: 5'FAM on strand 1; blunt
binder,measurement,value
Mot38-WT (dsDNA) DNA 1: AATAAATCGGCACAATCGTGCCGATTTTGG DNA 2: CCAAAATCGGCACGATTGTGCCGATTTATT,binding result,binds
